In test [1] the target is human Programmed Death-1 (PD-1) expressed on the cell surface (human) (UniProt Q15116). The experiment in a line: flow cytometry blocking assay: HEK293 cells expressing PD-1 incubated with 10 µg/ml isotype control, washed, stained with PD-L1-Ig Alexa-488; negative control of blocking. (In general: In flow cytometry, cells or beads pass a laser one at a time.)
Test [2] concerns the target T1, human Programmed Death-1 (PD-1) expressed on the cell surface (human, UniProt Q15116 25-288). The experiment in a line: cell-based or functional assay.
Test [3] has as its target T1, human Programmed Death-1 (PD-1) …. The experiment in a line: cell-based or functional assay. This is another data set of the same source.
For test [4], the target named is T2, soluble extracellular domain of human PD-1 (human, UniProt Q15116 25-170).
T2 construct: extracellular domain
The experiment in a line: BLI (ForteBio Octet Red), antibody on the biosensor, soluble PD-1 ECD as analyte. On the procedure: Biophysical characteristics of certain anti-PD-1 antibodies were analyzed by biolayer interferometry (BLI), using the ForteBio Octet Red system (Pall Corporation, Menlo Park, Calif.). The antibodies were immobilized on BLI biosensors and then incubated with the soluble extracellular domain of human PD-1. Using standard biophysics methods, apparent on-rates and off-rates were then inferred for PD-1 with anti-PD-1 antibodies.
Background: BLI is a label-free optical method that tracks binding on a fibre tip over time.

Test [5] deals with T1, human Programmed Death-1 (PD-1) …. The experiment in a line: cell-based or functional assay. This is another data set of the same source.
The target of test [6] is T3, recombinant soluble extracellular domain (ECD) of ICOS (inducible T-cell costimulator) (R&D Systems) (UniProt Q9Y6W8 21-140, limits assumed).
T3 construct: extracellular domain
T3 sequence (looked up): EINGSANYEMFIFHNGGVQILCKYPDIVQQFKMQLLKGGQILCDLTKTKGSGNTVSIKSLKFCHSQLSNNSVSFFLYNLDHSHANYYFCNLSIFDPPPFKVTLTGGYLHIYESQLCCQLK
The experiment in a line: ELISA, ICOS ECD coated on the plate, OD 450 nm; anti-ICOS as positive control. On the procedure:
(§1) To assess selectivity of the anti-PD-1 antibodies, ELISA was used to generate dose response curves for binding of the anti-PD-1 antibodies to several immunomodulatory cell surface proteins. Recombinant soluble extracellular domains (ECDs) of ICOS (inducible T-cell costimulator), PD-1, CD28 or CTLA4 (R&D Systems, Minneapolis, Minn.) were coated onto ELISA assay plates. Binding of each anti-PD-1 antibody and each control antibody to each target protein was then assessed over a range of antibody concentrations (FIGS. 9A-9D).

In test [7] the target is T4, recombinant soluble extracellular domain (ECD) of CD28 (R&D Systems) (UniProt P10747 19-152, limits assumed).
T4 construct: extracellular domain
The experiment in a line: ELISA, CD28 ECD coated on the plate, OD 450 nm; anti-CD28 as positive control. The method, then: as §1
In general terms: In an ELISA, binding on a coated surface is turned into a signal by an enzyme label.

Test [8] addresses T5, recombinant soluble extracellular domain (ECD) of CTLA4 (R&D Systems) (UniProt P16410 36-161, limits assumed).
T5 construct: extracellular domain
The experiment in a line: ELISA, CTLA4 ECD coated on the plate, OD 450 nm; anti-CTLA4 as positive control. The method, then: as §1

Test [9] has as its target T6, recombinant soluble extracellular domain (ECD) of PD-1 (R&D Systems) (UniProt Q15116 25-170).
T6 construct: extracellular domain; also called PD-1 ECD
The experiment in a line: ELISA, PD-1 ECD coated on the plate, antibody titrated from about 0.003 to about 13 nM, OD 450 nm. The method, then:
as §1

Test [10] concerns the target human Programmed Death-1 (PD-1) expressed on the cell surface (human) (UniProt Q15116). The experiment in a line: cell-based or functional assay.
The target of test [11] is recombinant soluble extracellular domain (ECD) of PD-1 (R&D Systems) (UniProt Q15116). The experiment in a line: ELISA, PD-1 ECD coated on the plate, antibody titrated from about 0.003 to about 13 nM, OD 450 nm.
The target of test [12] is human Programmed Death-1 (PD-1) expressed on the cell surface (human) (UniProt Q15116). The experiment in a line: flow cytometry blocking assay: HEK293 cells expressing PD-1 incubated with 10 µg/ml antibody, washed, stained with PD-L1-Ig Alexa-488 as the blocked ligand.

Residue numbers refer to the chain shown, from its start.

T2 sequence (Q15116 25-170): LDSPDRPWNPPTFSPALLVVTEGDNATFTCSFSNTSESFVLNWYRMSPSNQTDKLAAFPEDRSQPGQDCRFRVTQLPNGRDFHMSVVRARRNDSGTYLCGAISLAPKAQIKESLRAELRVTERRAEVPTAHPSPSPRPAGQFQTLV
T6 sequence (Q15116 25-170): as above
T5 sequence (P16410 36-161 limits assumed): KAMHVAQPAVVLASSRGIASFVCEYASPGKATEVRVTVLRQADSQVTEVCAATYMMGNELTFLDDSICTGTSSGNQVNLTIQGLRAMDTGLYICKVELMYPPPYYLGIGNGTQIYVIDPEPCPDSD
Chain of human Programmed Death-1 (PD-1) expressed on the cell surface (human) (Q15116 25-288): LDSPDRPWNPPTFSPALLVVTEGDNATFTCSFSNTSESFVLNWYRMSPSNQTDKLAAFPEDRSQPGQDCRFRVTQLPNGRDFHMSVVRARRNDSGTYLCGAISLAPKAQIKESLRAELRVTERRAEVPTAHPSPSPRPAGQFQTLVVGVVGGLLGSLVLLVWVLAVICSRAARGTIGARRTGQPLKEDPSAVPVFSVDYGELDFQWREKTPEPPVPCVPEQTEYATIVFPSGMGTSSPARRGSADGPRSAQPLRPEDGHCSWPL
T1 sequence (Q15116 25-288): as above
Chain of recombinant soluble extracellular domain (ECD) of PD-1 (R&D Systems) (UniProt Q15116) (Q15116 25-170): as the sequence (Q15116 25-170) above

In test [1], isotype control mouse IgG1 (antibody) showed a percent of cells in gate Alexa Fluor 488-A+ (PD-L1-Ig staining after the antibody) of 37.6% and a percent of cells in gate Alexa Fluor 488-A- (PD-L1-Ig staining after the antibody) of 62.4%.

B1: 388D4-2 (100388_D4_HC3 + 100389_D4_LC3) (antibody, V domains shown)
VH: EVQLVQSGAEVKKPGASVKVSCKASGYTFTDYEMHWVRQAPGQRLEWMGVIDPGTGGTAYNQKFQGRVTITADKSASTAYMELSSLRSEDTAVYYCTSEKFGSNYYFDYWGQGTLVTVSS
VL: DIVMTQTPLSSPVTLGQPASISCRSSQTIVHSDGNTYLEWYQQRPGQPPRLLIYKVSNRFSGVPDRFSGSGAGTDFTLKISRVEAEDVGVYYCFQGSHVPLTFGQGTKLEIK
On to B1, for which the “Fold Induction IFN-γ (relative to isotype control; NSCLC biopsy cells, 20 µg/mL)” value in test [2] worked out at 7.58 fold. For the same molecule, in [3], the “Fold Induction IFN-γ (relative to anti-CD3 + anti-CD28 only; antibody at 5 ug/mL)” value was 2.06 fold and the “Fold Induction IFN-γ (relative to anti-CD3 + anti-CD28 only; antibody at 10 ug/mL)” value was found to be 1.82 fold.

B2: 388D4-3 (100388_D4_HC1 + 100389_D4_LC3) (antibody, V domains shown)
VH: B1 VH with R44G, V50I, I70M, A76T, A79V
VL: B1 VL
Turning to B2, the “Fold Induction IFN-γ (relative to isotype control; NSCLC biopsy cells, 20 µg/mL)” value in [2] came out at 7.2 fold.

B3: 244C8-1 (100244_C8_HC1 + 100245_C8_LC1) (antibody, V domains shown)
VH: QVQLVQSGAEVKKPGASVKVSCKASGYTFTSYWMHWVRQAPGQGLEWMGMIDPSNSETSLNQKFQGRVTMTVDKSTNTVYMELSSLRSEDTAVYYCARSRGNYAYEMDYWGQGTLVTVSS
VL: EIVLTQSPATLSLSPGERATLSCRASSSVSSNYLYWYQQKPGQAPRLLIYSTSNRATGIPARFSGSGSGTDYTLTISSLEPEDFAVYYCHQWSSYPPTFGQGTKLEIK
Take B3: the “Fold Induction IFN-γ (relative to isotype control; NSCLC biopsy cells, 20 µg/mL)” value in test [2] stood at 8.04 fold.

B4: 244C8-3 (100244_C8_HC2 + 100245_C8_LC1) (antibody, V domains shown)
VH: B3 VH with Q1E, M70L, T71N, V79A
VL: B3 VL
Turning to B4, the “Fold Induction IFN-γ (relative to isotype control; NSCLC biopsy cells, 20 µg/mL)” value in test [2] was 7.79 fold.

B5: 100413_D2VH9_100414_D2VK6 (antibody, V domains shown)
VH: EVQLQESGPDLVKPSQSLSLTCTVTGYSITSGYSWHWIRQFPGNKLEWMGFIHYSGDTNYNPSLKSRFSITRDTSKNQFFLHLNSVTPEDTATYYCASPSRLLFDYWGHGTTLTVSS
VL: DIVMTQSPSSLTVTAGEKVTMSCKSSQSLLNSGTQKNYLTWYQQKPGQPPKLLIYWASTRESGVPDRFTGSGSGTDFTLTISSVQAEDLAVYYCQNDYSYPLTFGAGTKLEIK
notes: Mouse variable regions; cloned into pFUSE-CHIg-mG1 (murine IgG1 Fc), expressed in HEK293
Broadly, the Kd is the concentration at which binding is half-saturated. A high value points to lower affinity. What is called koff is a measure of how fast the partners let go of each other. Higher therefore signals a short-lived complex. For orientation: kon means a measure of how fast the partners come together. High values mean fast association, low ones slow association. As for B5, in test [4], the Kd was 8.2 nM, the koff came out at 0.00226 s⁻¹ and the kon is 275000 M⁻¹ s⁻¹.

B6: 100246_A10VH1_100247_A10VK3 (antibody, V domains shown)
VH: EVQLQESGPGLVKPSQSLSLTCTVTGYSITSDYAWNWIRQFPGNKLEWMGYITYSGSPTYNPSLKSQFSITRDTSKNQFFLQLNSLTTEDTATYYCARGLGGHYFDYWGQGTTLTVSS
VL: DIVLTQSPDTLSVTPGDRVSLSCRASQSISDYLHWYQQKSHESPRLLIKYASQSISGIPSRFSGSGSGSDFTLSINSVEPEDVGVYYCQNGHSYPYTFGGGTKLELK
notes: as for B5
A word on the EC50 (read off the curve): it is the midpoint of the concentration-response curve. Turning to B6, in test [5], the “CD4 IFNγ % positive” value is 20.3 % positive, the “CD8 IFNγ % positive” value is 26.2 % positive and the “CD8 TNFα % positive” value turned out to be 14.9 % positive. In test [4], this molecule returned a Kd of 76.4 nM, a koff of 0.0123 s⁻¹ and a kon of 161000 M⁻¹ s⁻¹. Besides, the binding result in test [6] was “no binding (tested: about 13 nM)”. The binding result in [7] is “no binding (tested: about 13 nM)”. The binding result in test [8] is reported as “no binding (tested: about 13 nM)”. The “EC50 (read off the curve)” value in test [9] is about 0.04 nM.

B7: 100388_D4VH3_100389_D4VK5 (antibody, V domains shown)
VH: EVQLQESGAELVRPGASVTLSCKASGYTFTDYEMHWVKQTPVHGLEWIGVIDPGTGGTAYNQKFKVKALLTADKSSNTAYMELRSLTSEDSAVYYCTSEKFGSNYYFDYWGQGTTLTVSS
VL: DIVITQTPLSLPVSLGDQASISCRSSQTIVHSDGNTYLEWYLQKPGQSPKLLIYKVSNRFSGVPDRFSGSGSGTDFTLKISRVEAEDLGVYYCFQGSHVPLTFGAGTKLEIK
notes: as for B5
For B7, in test [5], the “CD4 IFNγ % positive” value is 21.2 % positive, the “CD8 IFNγ % positive” value worked out at 31.2 % positive and the “CD8 TNFα % positive” value came out at 8.56 % positive. Besides, in test [4], the affinity, expressed as Kd, was 2.69 nM; the koff was 0.000999 s⁻¹; the kon was determined as 371000 M⁻¹ s⁻¹. The binding result in [6] is recorded as “no binding (tested: about 13 nM)”. For the same molecule, the binding result in test [7] was “no binding (tested: about 13 nM)”. The binding result in test [8] is “no binding (tested: about 13 nM)”. In addition, the “EC50 (read off the curve)” value in [9] was about 0.05 nM.

B8: 100413_E1VH9_100414_E1VK5 (antibody, V domains shown)
VH: EVQLQESGPSLVQPSQSLSITCTVSGFSLTSYGVHWVRQSPGKGLEWLGVIWRGGNTDYNAAFMSRLSITKDNSKSQVFFKMNSLQADDTAIYYCAASMIGGYWGQGTTLTVSS
VL: B7 VL with I4L, T28S, D33N, D75N, I111L
notes: as for B5
Turning to B8, in test [5], the “CD4 IFNγ % positive” value came to 20.2 % positive, the “CD8 IFNγ % positive” value came out at 27 % positive and the “CD8 TNFα % positive” value came to 11.1 % positive. In [4], this molecule showed a Kd of 58.9 nM, an off-rate (koff) of 0.0299 s⁻¹ and a kon of 507000 M⁻¹ s⁻¹. Also, the binding result in test [6] is on record as “no binding (tested: about 13 nM)”. The binding result in test [7] was “no binding (tested: about 13 nM)”. In test [8], the binding result is listed as “no binding (tested: about 13 nM)”. The concentration for a half-maximal effect (EC50 (read off the curve)) in [9] is about 0.06 nM.

B9: 100244_C8VH3_100245_C8VK5 (antibody, V domains shown)
VH: EVQLQESGPELVRPGASVKMSCKASGYTFTSYWMHWVKQRPGQGLEWIGMIDPSNSETSLNQKFKDKATLNVDKSTNTAYMQLSSLTSEDSAVYYCARSRGNYAYEMDYWGQGTSVTVSS
VL: DIVITQTTAIMSASPGEKVTLTCSASSSVSSNYLYWYQQRPGSSPKLWIYSTSNLASGVPARFSGSGSGTSYSLTISSMEAEDAASYFCHQWSSYPPTFGSGTKLEIK
notes: as for B5
Take B9: in test [5], the “CD4 IFNγ % positive” value turned out to be 9.64 % positive, the “CD8 IFNγ % positive” value stood at 19.9 % positive and the “CD8 TNFα % positive” value came to 14.5 % positive. In test [4], the Kd came to 15.1 nM, the koff worked out at 0.00322 s⁻¹ and the kon was determined as 213000 M⁻¹ s⁻¹. Besides, the binding result in test [6] is given as “no binding (tested: about 13 nM)”. Moreover, the binding result in test [7] was “no binding (tested: about 13 nM)”. The binding result in test [8] is recorded as “no binding (tested: about 13 nM)”. For the same molecule, the “EC50 (read off the curve)” value in test [9] is about 0.03 nM.

B10: mouse anti-PD-1 cl. EH12.2H7 (antibody, from another filing, V domains shown)
VH: QVQLQQSGAELAKPGASVQMSCKASGYSFTSSWIHWVKQRPGQGLEWIGYIYPSTGFTEYNQKFKDKATLTADKSSSTAYMQLSSLTSEDSAVYYCARWRDSSGYHAMDYWGQGTSVTVSS
VL: DIVLTQSPASLTVSLGQRATISCRASQSVSTSGYSYMHWYQQKPGQPPKLLIKFGSNLESGIPARFSGSGSGTDFTLNIHPVEEEDTATYYCQHSWEIPYTFGGGTKLEIK
Turning to B10, in test [10], the CD4 IFNγ % positive came out at 12.8 % positive, the CD8 IFNγ % positive was found to be 19.5 % positive and the CD8 TNFα % positive was found to be 14.1 % positive. For the same molecule, in test [11], the EC50 (read off the curve) is 0.02 nM. In test [12], this molecule yielded a percent of cells in gate Alexa Fluor 488-A+ (PD-L1-Ig staining after the antibody) of 10.3% and a percent of cells in gate Alexa Fluor 488-A- (PD-L1-Ig staining after the antibody) of 89.7%.

For the origin of these results see patent US20160251436A1 (PD 1 ACQUISITION GROUP, published 2016).
